The source of these data is article PMC10694767 (Cell Reports Medicine, 2023).

In experiment [1] the target is T1, soluble EBV gp42 (ectodomain, aa 34-223) (Epstein-Barr virus, strain M81, UniProt P03205). Description: cell-based or functional assay.
The target of experiment [2] is T2, virion-encoded gp42 expressed on the cell surface of EBV-positive CNE2 cells (Epstein-Barr virus (HHV-4); strain …).
T2 chain: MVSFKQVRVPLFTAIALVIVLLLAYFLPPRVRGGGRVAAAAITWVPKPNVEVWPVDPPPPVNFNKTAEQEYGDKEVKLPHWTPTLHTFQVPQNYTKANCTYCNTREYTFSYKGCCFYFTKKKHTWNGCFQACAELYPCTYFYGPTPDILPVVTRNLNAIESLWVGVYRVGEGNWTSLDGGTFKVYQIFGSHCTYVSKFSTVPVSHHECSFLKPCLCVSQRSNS
Description: flow cytometry on cells. A general note: In flow cytometry, cells or beads pass a laser one at a time.

Experiment [3] addresses T3, gHgL-gp42 complex (soluble gHgL with soluble gp42) (Epstein-Barr virus (HHV-4), strain M81, strain). Description: SPR. On the technique in general: In SPR one partner is held on a chip, and binding of the other changes the refractive index at the surface.
Experiment [4] concerns the target T1, soluble EBV gp42 (ectodomain, aa 34-223). Description: SPR.
For experiment [5], the target named is T3, gHgL-gp42 complex (soluble gHgL with …). Put plainly: SEC. On the technique in general: In gel filtration, larger molecules generally elute earlier.
In experiment [6] the target is T1, soluble EBV gp42 (ectodomain, aa 34-223). Put plainly: cryo-EM structure.
Experiment [7] addresses virion-encoded gHgL expressed on the cell surface of EBV-positive CNE2 cells (Epstein-Barr virus (HHV-4), strain in …). Put plainly: flow cytometry on cells.

B1: 5E3 (anti-gp42 rabbit mAb, constant regions replaced with human IgG1) (antibody, V domains shown)
VH: QPVEESGGRLVTPGTPLTLTCTVSGFSLSTYAMSWVRQAPGKGLEWIGTISASDTTYFANWTKGRFTISKASTTVDLKITSPTTEDTATFFCARFSAYESNRDYFDTFDPWGPGTLVTVSS
VL: DVVMTQTPSPVSAAVGGTVTIKCQASQNIYRDLAWYQQNPGQPPKLLIYGASNLASGVPSRFSGSGSGTEYILTISDLECADAATYYCQCSAYGSGYAAHAFGGGTKVDIK
Consider B1, for which the “IC50 of neutralisation of EBV infection of Akata B cells; blocks gp42:HLA-II” value in experiment [1] was found to be 0.2 µg/mL. Further, the binding result in experiment [2] and in experiment [3] was “binds” each time. Further, in experiment [4], binding was put at a Kd of 0.39 nM.

B2: 5E3 Fab (Fab, V domains shown)
VH: QPVEESGGRLVTPGTPLTLTCTVSGFSLSTYAMSWVRQAPGKGLEWIGTISASDTTYFANWTKGRFTISKASTTVDLKITSPTTEDTATFFCARFSAYESNRDYFDTFDPWGPGTLVTVSS
VL: DVVMTQTPSPVSAAVGGTVTIKCQASQNIYRDLAWYQQNPGQPPKLLIYGASNLASGVPSRFSGSGSGTEYILTISDLECADAATYYCQCSAYGSGYAAHAFGGGTKVDIK
For B2, the binding result in experiment [5] and in experiment [6] was “binds” each time.

B3: 3E8 (anti-gp42 rabbit mAb, constant regions replaced with human IgG1) (antibody, V domains shown)
VH: QPVKESGGRLVTPGTPLTLTCTASGFSLSSYWMSWVRQARGKGLEWIGTATAGGSAWYASWAKGRFTISRTSTTVELRMTSLTTEDTATYFCARDPPGHSGLWGRGTLVTVSS
VL: DLVMTQTPASVEAAVGGTVTIKCQASESIGNALAWYQQKPGQPPKLLIYDTSNLASGVSSRFRGSGSGTQFTLTISDLECADAATYYCQTYYYSGVTTTYQAFGGGTEVDVK
As for B3, the binding result in experiment [2] and in experiment [3] was “binds” throughout. In addition, the equilibrium dissociation constant (Kd) (commonly the concentration at which binding is half-saturated) in experiment [4] turned out to be 0.42 nM.

B4: 3E8 Fab (Fab, V domains shown)
VH: QPVKESGGRLVTPGTPLTLTCTASGFSLSSYWMSWVRQARGKGLEWIGTATAGGSAWYASWAKGRFTISRTSTTVELRMTSLTTEDTATYFCARDPPGHSGLWGRGTLVTVSS
VL: DLVMTQTPASVEAAVGGTVTIKCQASESIGNALAWYQQKPGQPPKLLIYDTSNLASGVSSRFRGSGSGTQFTLTISDLECADAATYYCQTYYYSGVTTTYQAFGGGTEVDVK
With B4, in experiment [5], the binding result was “binds”.

B5: 6H2 (anti-gHgL mAb, constant regions replaced with human IgG1) (antibody, V domains shown)
VH: EVKLLESGGGLVQPGGSLKLSCAASGFDFSRYWMTWVRQAPGQGLEWIGEINPDSSTINYTPSLKDKFIISRDNAKNTLYLQVSKLRSEDTALYYCARSPYYYGSSYDVWGAGTAVTVSS
VL: DIVMSQSPSSLAVSAGEKVTMNCKSSQSLLNSRTRKNYLAWYQQKPGQSPKLLIYWASTRESGVPDRFTGSGSGTDFTLTISSVQAEDLAFYYCKQSYNLPTFGGGTKLEIK
In the case of B5, the binding result in experiment [7] and in experiment [3] was “binds” each time.

B6: 6H2 Fab (Fab, V domains shown)
VH: EVKLLESGGGLVQPGGSLKLSCAASGFDFSRYWMTWVRQAPGQGLEWIGEINPDSSTINYTPSLKDKFIISRDNAKNTLYLQVSKLRSEDTALYYCARSPYYYGSSYDVWGAGTAVTVSS
VL: DIVMSQSPSSLAVSAGEKVTMNCKSSQSLLNSRTRKNYLAWYQQKPGQSPKLLIYWASTRESGVPDRFTGSGSGTDFTLTISSVQAEDLAFYYCKQSYNLPTFGGGTKLEIK
With B6, in experiment [5], the binding result is “binds”.

B7: 10E4 (anti-gHgL rabbit mAb, constant regions replaced with human IgG1) (antibody, V domains shown)
VH: QQVKESGGRLVTPGTPLTLTCTASGFSLSTYWMSWVRQAPGKGLEYIGVIGGSGSTYYASWAKGRFTISKTSTTVDLKITSPTTEDTATYFCARDSGAGVRFRFWGPGTLVTVSS
VL: DLVMTQTPASVEAGVGGTVTINCQASENIGSRLAWYQQKPGQPPKLLIYRASTLESGVPSRFKGSGSGTEFTLTISDLECADAATYYCQCTYGVSITINYGNDFGGGTEVVVK
For B7, the binding result in experiment [7] and in experiment [3] was “binds” throughout.

B8: 10E4 Fab (Fab, V domains shown)
VH: QQVKESGGRLVTPGTPLTLTCTASGFSLSTYWMSWVRQAPGKGLEYIGVIGGSGSTYYASWAKGRFTISKTSTTVDLKITSPTTEDTATYFCARDSGAGVRFRFWGPGTLVTVSS
VL: DLVMTQTPASVEAGVGGTVTINCQASENIGSRLAWYQQKPGQPPKLLIYRASTLESGVPSRFKGSGSGTEFTLTISDLECADAATYYCQCTYGVSITINYGNDFGGGTEVVVK
For B8, the binding result in experiment [5] was “binds”.
